# Experiment: yeast display, Sf9 membrane polyspecificity reagent, FACS + sequencing; frameworks hold sequencing errors
# Procedure, shortened: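 Nanobodies from a synthetic yeast display library (Saccharomyces cerevisiae BJ5465), induced 36–48 hours with galactose, were stained 1 hour at 4 °C with 10% biotinylated, detergent-solubilized Sf9 membrane reagent, enriched on streptavidin microbeads, then FACS-sorted. Anti-HA (expression) and streptavidin (reagent binding) fluorescence set low and high (top ~1%) gates. Polyreactivity labels come from the gate of origin. Genes were colony-PCR amplified, MiSeq 2 × 250 sequenced and filtered by CDR length.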
row,Sequence,polyreactivity (PSR sort gate)
1,QVQLVESGGGLVQAGGSLRLSCAASGFTFVYYAMGWYRPAPGKERELVAAISRGGSTYYADSVKGRFTISRDNAKNTVYLQMNSLKPEDTAVYYCNAKKSGLYVSYPAYDYWGQGTQVTVSS,low polyreactivity
2,QVQLVESGGGLVQAGGSHRLSCAASGSTFLNNAMGWYRQAPGKERELVATITSGGITNYADSVKGRFTISRDNAKNTVYLQMNSLKPEDTAVYYCNGETWGFTYYYWGQGTQVTVSS,low polyreactivity
3,QVQLVESGGGLVQAGGSLRLSCAASGITFGQNAMGWYRQAPGKEREYVATITASGSTYYADSVKGRFTISRDNAKNTVYLQMNSLKPEDTAVYYCATRYAGEYYWDYDYWGQGTQVTVSS,high polyreactivity
4,QVQLVESGGGLFQAGGSLRISCAASGSTFLVNAMGWYRQAPGKEREFVAAITWTGGSTYYADSVKGRFTISRDNAKNSVYLQMNRLKPEDTAVYYCNTDWTYYGDQYRRGGYWGQGTQVTVSS,low polyreactivity
5,QVQLVESGAGLVQAGGSLRLSCAASGSIFVYYTMGCYRQAPGKEREFVAAISFSGGSTYADSVKGRFTISRDNAKNTVYLQMNSLKPEDTAVYYCNADRWLYTPSKFVEMDFWGQGTQVTVSS,low polyreactivity
6,QVQLESGGGLVQAGGRLRLSCAASGSIIDQYVMGWYRQAPGKERELVAAISRGGRTYYADSVKGRFTISRDNAKNTVYLQMNSLKPVDSSVYYCAARSDVRGFDYWGQGTQVTVSS,low polyreactivity
7,QVQLVESGGGLVQAGGSLRLSCAATGSNFTGNAMVWYRQAPGKERELVAAISRSGGSTYYADSVKGRYTISRDNAKNTVYLQMISLKPEDTAVYYCAAYRTHGPPRAIRFDYWGQGTQVTVSS,high polyreactivity
8,QVQLVESGGGLVQAGGSLRLSCAASGIIFFDYAMGWYRQAPGKERELVAAITSSGGSTYYADSVKGRFTISRDNAKNTVYLQMNSLKPEDTAVYYCAAATRGSGRRNDYWGQGTQVTVSS,high polyreactivity
9,QVQLVESGGGLVQAGGSLRLSCAASGRTFFSFNAMVWYRQPPGKERELVAAIDGDGGITYYADSVKGRFTISRDNAKNTVYLQMNSLKPEDTAVYYCAAETLYSSAGEDDYWGQGTQVTVSS,low polyreactivity
10,QVQLVESGGGLVQAGGSLRLSCAASGRIFSPYAMGWYRQAPGKERELVAAISGRGGRTYYADSVKGRFTISRDNAKNTVYLQMNSLKPEDTAVYYCNRVVSGYPGSDYWGQGTQVTVSS,high polyreactivity
11,QDQLVESGGGLVQAGGSLRLSCAASGSIFPGYAMGWYRKAPGKEREFVATITWSGGSTYYADSVKGRFTISRDNAKNTVYLQMNSLKPEDTAVYYCNADSNWYYQWNYYGLYDYWGQGTQVTVSS,low polyreactivity
12,QVQLVESGGGLVQAGGSLRLSCAASGFIFRGNGMGWYRQAPGNERELVAAISKSGGRTYYADSVKGRFTISRDNAKNTVYLQMNSLKPEDTAVYYCNARRFWRGDYWGQGTQVTVSS,high polyreactivity
13,QVQLVESGGGLVQAGGSLRLSCAASGNTLDAYAMGWYRQAPGKERELVAAITSGGSTYYADSVKGRFTISRDNAKNTVYLQMNILKPEDTAVYYCNADGHPSDPGYDYWGQGTQVTVSS,low polyreactivity
14,QVQLVESGGGLVQAGGSLRLSCAASGRTFNVNAMGWYRQAPGKERELVASITWSDGSTYYADSVKGRFTISRDNAKNTVYLQMNSLKPEDTAVYYCNVTYGLESSYPRDDYWGQGTQVTVSS,low polyreactivity
15,QVQLVESGGGLVQAGGSPRLSCAASGSISNYYGMGWYRQAPRKERELVAAITWGGGRTNYADSVKGRFTISRDNAKNTVYLQMNSLKPEDTAVYYCAKVSVTHRYGAGGDYWGQGTQVTVSS,low polyreactivity
16,QVQLVESGGGLVQAGGSLRLSCSASGRIFSPYAMGWYRQAPGKERELVAAISWRGSSTYYADSVKGRFTISPDNAKNTVYLQMNSLKPEDTAVYYCAAPSSKYWGQGTQVTVSS,low polyreactivity
17,QVQLVESGGGLVQAGGSLRLSCAASGSTVYYNAMGWYRQAPGKERELVADISWRGGITYYADSVKGRFTISRDNAKNTVYLQMNSLKPAETAVYYCNADAESFDDGYWGQGTQVTVSS,low polyreactivity
18,QVQLVESGGGLVQAGGSLRLSCAASGFTFLRNAMGWYRQAPGKERELVATISTSGGSTYYADSVKGRFTISRDNAKITVYLQMNSLKPEDTAVYYCAKRYRTRDSGYDYWGQGTQVTVSS,high polyreactivity
19,KVQLVESGGGLVQAGGSLRLSCAASGSIFYVNAMGWYRQAPGKERELVARITLSGTSTYYADSVKGRLTISRDNAKNTVYLQMNSLKPEDTAVYYCAATYWSWISLRFYWGQGTQVTVSS,low polyreactivity
20,QVQLVESGGGLVQAGGSLRLSCAASGSTFTVNAMGWYRQAPGKERELVAAINWSGGSTYYADSVKGRFTISRDNAKNTVYLQMNSLKPEDTAVYYCNKDREPYGYWSFDYWGQGTQVTVSS,low polyreactivity
21,QVQLVESGGGLVQAGGSLRLSCAASGRIFSRNAMGWYRQAPGKERELVAAITSGGSTYYADSVKGRFTISRDNAKNTVYLQMNSLKPEDTAVFYCAKRLTYYSWYHRYDYWGQGTQVTVLS,high polyreactivity
22,QVQLVESGGGLVQAGGSLRLSCAASGLTFYYYAMGWYRQAPGKERELVARISSGTSTYYADSVKGRFTISRDNAKNTVYLQMNSLKPEDTAVYFCNARRKLGSTHGPWGGLVYWGQGTQVTVSS,low polyreactivity

row,Sequence,polyreactivity (PSR sort gate)
1,QLQLVESGGGLVQAGGSLRLSCAASGSIFYPYAMGWYRQAPGKERELVATINEDGGSTYYADSVKGRFTISRDNAKNTVYLQMNSLKQEDTAVYYCNTDHFEDYHTDFWSDYEYWGHGTQVTVSS,low polyreactivity
2,QVQVVESGGGLVQAGGSLRLRCAASGRSFVRNAMGWYRQAPGKEREFVAAINSGGSTYYADSVKGRFTISRDNAKNTVYLQMNSLKPEDTAVYYCAAELHIYYSWYWYDYWGQGTQVTVSS,high polyreactivity
3,QVQLVESGGGLVQAGGSLRLSCAASGRTFYSNAMGWYRQAPGKERELVATITLSGGSTDYADSVKGRFTISRDNAKNTVYLQMNSLKPEDTAVYYCNADTDVHLIMGYWGQGTQVTVSS,low polyreactivity
4,QVQLVESGGGLVQAGGSLRLSCAASGFIFVAYAMGWSRQAPGKERELVAAITSSGGRTYYADSVKGRFTISRDNAKNTVYLQMNSLKPEDTAVYYCAARVYRSAKGYNYWGQGTQVTVSS,high polyreactivity
5,QVQLVESGGGLVQAGGSLRLSCAASGSIITINAMGWYRQAPGKERELVAAISKRGGSTYYADSVKGRFTISSDNGKHTVYLQLNSLKPEDTAFYYCNAREYIHWRGALGLFGSWGQGTQVNVSS,high polyreactivity
6,QVQLVESGGGLVQAGGSLRLSCAASGRTFYIYAMGWYRQAPGKERELVADITSGGSTYYADSVKGRFTISRDNAKNTVYLQMNSLKPDDTAVYYCAADWVTFYSYTEYDYWGQGSQVTVSS,low polyreactivity
7,QVQLVESGGGLVQAGGSLRLSCAASGRTFVYYAMAWYRQAPGKERELVAAISRTGVNTYYADSVKGRFTISRDNAKNTVYLQMNSQKPEDTAVYYCNKVYRADRSSVPYEYWGQGTQVTVSS,high polyreactivity
8,QVQLVESGGGLVQAGGSLRLSCAASGSTFDRNAMGWYRQAPWKERELVATINSDDSKNYADSVKGRFTISRDNAKNTVYLQMNSLKPEDTAVYYCAARLYVTPILSYVERYTNDYWGQGTQVTVSS,low polyreactivity
9,QVQLVESGGGLVQAGGSLRLSCAACGFTFAYYAMGWYRQAPGKERELVATITSGGRTYYADSVKGRFTISRDNAKNTVYFQMNSLKPEDTAVYYCAGAGKGRYHFRSTMDYWGQGTQVTVSS,high polyreactivity
10,QVQLVESGGGLVQAGGSLRLTCAGSGSTYGKYAIGGYRQAPGKERQLVAAISYRGGRTFYADSVKGRFTISRDNAKNTVFLQMKSLKPEDTAVYYCAAYPGVSRGTGPRRYDYWGQGTQVTVSS,high polyreactivity
11,QVQLVESGGGLVQARGSLRLSCAASGSIIGGNAMGWYRQAPGKERELVATISWSGGSTYYADSVKGRFTISRDKAKNTVYLQMNSLKPEDTAVYYCAKTPYRRYRYGGYTYRTYEYWGQGTQVTVSS,low polyreactivity
12,QVQLVESGGGLVQAGGSLRLSCAASGIIFRWYTMGWYRQAPGKERELVAAISTSTGSTYYADSVKGRFTISRDNAKNTVYLQMNSLKPEDTAVYYCNARQFSGLGYWGQGTQVTVSS,high polyreactivity
13,QVQLVESGGGLVQAGYSLRLSFAASGITFRYYAMGWYRQATGKERELVAGITWSGPSTYYADSVKGRFTISRDNAKNTVYLQMNILKPEYTAVFYCAVDYGLYFTFDYWGQGTQVTVSS,low polyreactivity
14,QVQLVESGGGLDQAGGSLRLSCAATGGTFTRKAMGWYRQAPGKERELVASITSGDTTNYADSVKGRFTISRDNAKNTVYLQMNSLKPEDTAVYYCATDTPTDRYAAYPHDPYYYWGQGTQVTVSS,low polyreactivity
15,QVQLVESGGGLVQAGGSLRLSCAASGSTFWPYTMGWYRPATGKESELVAAISLSGGSTYYADSVKGRFTISRDNAKNSVYLQMNSLKPEDTAVYYCAAEGGYQNWHYLYEYWGQGTQVTVSS,low polyreactivity
16,QVQLVESGGGLVQAGGSLRLSCAASGFIFRYYAMGWYRQAPGKERELVAAISWSGSSTYYADSVKGRFTISRDNAKNTVYLQMNSLKPEDTAVYYCNAVTRNARDYWGQGTLVTVSS,high polyreactivity
17,QVQLVESGGGLVQAGGSLRLSCAASGSIFLYNAMRWYRQAPGKERELVAAKSYSGASTYYADSVKGRFTISRDNAKNTVYLQMNSLKAEDTAVYYCAKTFRYKWPYGTPKYDYWGQGTQVTVSS,high polyreactivity
18,QVQLEESGGGLVQAGGSLRLSCAASGSIIWSYAMGWYRQAPGKERELVAVINWSGGSTYYADSVKGRFTISRDNAKNTVYLQMNSLKPEDTAVYYCNKDLGPTKRPFTFDYWGQGTQVTVSS,low polyreactivity
19,QVQLVESGGGLVQAGGSLRLSCAASRFIFSVYTMGSYIQAPGKERELVAAISSGPSTTYADSVKGRFTISRDNAKNTVYLQMNSLKPEDTAVYYCARRDGTTQALFGYDYWGLGTQVTVSS,low polyreactivity
20,QVQLVESGGGLVQAGGSLRLSCAASGRIFGTNAMGWYRQAPGKEREMVATITRGGGNTYYADSVKGRFTISRDNAKNTVYLQMNSLKPEDTAVYYCAAKFHRFAWFSHYDYWGQGTQVTVSS,low polyreactivity
21,QVQLVEAGGGLVQAGGSLRLSCAASGGTFNSNAMGWYRQAPGKERELGASITWRGGTYYADSVKGRFTISRDNAKNTVYLQMNSLKPEDTAVYYCAARGTIPGIHWIYYYWGQGTQVTVSS,high polyreactivity
